Laboratory results reported in US20200317768A1 (published 2020).
Where a chain is given by its changes, count along the chain named. Numbers in names are those of the source. Values belong to the binder of their own block, whether it stands above or below them.

Columns and labels:
[1] = target: T1, human FcγRIIaH extracellular domain, C-terminal His-tag (human, UniProt P12318 34-217); test: SPR; KD of SG1 / KD of variant;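 also: relative to parent M103205H795-SG1 carrying the SG1 human heavy chain constant region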
T1 construct: also called human FcγRIIa (type H); FcgRIIaH
T1 sequence: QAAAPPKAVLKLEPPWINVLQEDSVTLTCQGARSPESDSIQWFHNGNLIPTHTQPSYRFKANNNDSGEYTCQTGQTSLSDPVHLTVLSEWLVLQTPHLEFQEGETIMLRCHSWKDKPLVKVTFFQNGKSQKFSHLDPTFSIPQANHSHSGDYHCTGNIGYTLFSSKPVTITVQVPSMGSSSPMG
Method: (§1) The kinetic analysis of interactions between these antibodies and FcγR was carried out using BIACORE® T200 or BIACORE® 4000 (GE Healthcare). HBS-EP+ (GE Healthcare) was used as the running buffer, and the measurement temperature was set to 25° C. A chip produced by immobilizing Protein A. Protein A/G or mouse anti-human IgG kappa light chain (BD Biosciences) onto a Series S Sensor Chip CM4 or CM5 (GE Healthcare) by the amine-coupling method was used. […] After the measurement, the antibody captured on the chip was washed off by allowing reaction with 10 mM glycine-HCl, pH1.5 and 25 mM NaOH so that the chip was regenerated and used repeatedly. The sensorgrams obtained as measurement results were analyzed by the 1:1 Langmuir binding model using the BIACORE® Evaluation Software to calculate the binding rate constant ka (L/mol/s) and dissociation rate constant kd (l/s), and the dissociation constant KD (mol/L) was calculated from these values. […] Regarding such interactions, KD values were calculated using the following 1:1 binding model described in BIACORE® T100 Software Handbook BR1006-48 Edition AE.

[2] = target: T2, human FcγRIIb extracellular domain, C-terminal His-tag (human, UniProt P31994 43-217); test: SPR; KD of SG1 / KD of variant;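 also: relative to parent M103205H795-SG1 carrying the SG1 human heavy chain constant region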
T2 construct: also called FcgRIIb (human)
T2 sequence: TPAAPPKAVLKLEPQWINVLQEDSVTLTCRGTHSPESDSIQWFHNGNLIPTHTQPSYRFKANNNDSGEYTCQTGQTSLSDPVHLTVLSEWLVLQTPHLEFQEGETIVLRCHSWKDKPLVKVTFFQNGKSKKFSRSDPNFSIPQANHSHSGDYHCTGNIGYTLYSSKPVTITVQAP
Method: as §1

[3] = target: T3, cynomolgus monkey FcγRIIa1 extracellular domain, C-terminal His-tag (cynomolgus monkey); test: SPR; KD of SG1 / KD of variant;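 also: relative to parent M103205H795-SG1 carrying the SG1 human heavy chain constant region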
T3 construct: also called cyno FcγRIIa1; FcgRIIa1
T3 chain: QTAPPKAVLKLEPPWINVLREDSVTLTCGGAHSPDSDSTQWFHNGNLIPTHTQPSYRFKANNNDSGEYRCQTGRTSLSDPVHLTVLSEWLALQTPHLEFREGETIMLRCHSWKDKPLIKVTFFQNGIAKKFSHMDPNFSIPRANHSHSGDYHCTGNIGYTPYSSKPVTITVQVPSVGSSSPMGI
Method: as §1

[4] = target: T4, cynomolgus monkey FcγRIIb extracellular domain, C-terminal His-tag (cynomolgus monkey); test: SPR; KD of SG1 / KD of variant;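 also: relative to parent M103205H795-SG1 carrying the SG1 human heavy chain constant region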
T4 construct: also called cyno FcγRIIb; cynoFcγRIIb
T4 chain: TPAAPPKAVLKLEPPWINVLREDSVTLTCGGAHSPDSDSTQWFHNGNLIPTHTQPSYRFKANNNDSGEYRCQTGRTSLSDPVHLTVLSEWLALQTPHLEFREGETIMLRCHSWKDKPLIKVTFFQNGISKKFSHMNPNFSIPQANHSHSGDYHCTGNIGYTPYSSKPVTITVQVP
Method: as §1

[5] = target: T5, cynomolgus monkey FcγRIIa2 extracellular domain, C-terminal His-tag (cynomolgus monkey); test: SPR (BIACORE) 25C, antibody captured, FcgR as analyte
T5 construct: also called cyno FcγRIIa2; FcgRIIa2
T5 chain: T3 chain with P95T, T121A, I127K, A128S, K130N, D135N, R142Q
Method: as §1

[6] = target: T6, human FcγRIIaR extracellular domain, C-terminal His-tag (human, UniProt P12318 34-217); test: as above
T6 construct: also called human FcγRIIa (type R); FcgRIIaR
T6 chain: T1 sequence with H134R
Method: as §1

[7] = target: T2, human FcγRIIb extracellular domain, …; test: as above
Method: as §1

[8] = target: T3, cynomolgus monkey FcγRIIa1 …; test: as above
Method: as §1

[9] = target: T4, cynomolgus monkey FcγRIIb extracellular …; test: as above
Method: as §1

[10] = target: T7, cynomolgus monkey FcγRIIa3 extracellular domain, C-terminal His-tag (cynomolgus monkey); test: as above
T7 construct: also called cyno FcγRIIa3; FcgRIIa3
T7 chain: T3 chain with P95T, T121A, A128S, H133P, D135N
Method: as §1

KD fold (SG1 = 1) [1]: 1 fold
KD fold (SG1 = 1) [2]: 1 fold
KD fold (SG1 = 1) [3]: 1 fold
KD fold (SG1 = 1) [4]: 1 fold
Kd [5]: 5.2 µM
Kd [6]: 1.4 µM
Kd [7]: 4.7 µM
Kd [8]: 4.2 µM
Kd [9]: 1.7 µM
Kd [10]: 15 µM
B1: MS_M103205H795-SG1/M103202L889-SK1 (antibody, human IgG1, kappa)
heavy: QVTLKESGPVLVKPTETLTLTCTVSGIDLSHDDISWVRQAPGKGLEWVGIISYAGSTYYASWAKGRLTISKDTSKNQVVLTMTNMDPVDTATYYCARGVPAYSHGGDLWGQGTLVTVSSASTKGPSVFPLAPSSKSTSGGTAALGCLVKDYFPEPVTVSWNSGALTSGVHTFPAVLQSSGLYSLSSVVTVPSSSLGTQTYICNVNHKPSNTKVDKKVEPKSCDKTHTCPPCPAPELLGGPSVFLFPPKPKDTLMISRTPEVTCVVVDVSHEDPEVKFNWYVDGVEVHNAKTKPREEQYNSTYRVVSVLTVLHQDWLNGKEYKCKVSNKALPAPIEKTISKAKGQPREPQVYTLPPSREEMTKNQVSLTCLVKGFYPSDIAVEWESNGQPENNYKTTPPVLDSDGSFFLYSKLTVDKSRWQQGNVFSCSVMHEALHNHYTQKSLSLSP
light: DIVMTQSPATLSLSPGERATLSCTSSQSVYHANWLSWFQQKPGQPPKLLIYWASTLAYGVPSRFSGSGSGTDFTLTISSLQPEDAATYYCAGGYGGGRYAFGQGTKVEIKRTVAAPSVFIFPPSDEQLKSGTASVVCLLNNFYPREAKVQWKVDNALQSGNSQESVTEQDSKDSTYSLSSTLTLSKADYEKHKVYACEVTHQGLSSPVTKSFNRGEC
notes: also called MS1032LO06-SG1

KD fold (SG1 = 1) [1]: 0.01 fold
KD fold (SG1 = 1) [2]: 3.3 fold
KD fold (SG1 = 1) [3]: 0.2 fold
KD fold (SG1 = 1) [4]: 0.4 fold
Kd [5]: 26 µM
Kd [6]: 20 µM
Kd [7]: 1.4 µM
Kd [8]: 25 µM
Kd [9]: 4.9 µM
Kd [10]: 31 µM
B2: M103205H795-MY009/M103202L889-SK1 (antibody, human IgG1, kappa)
heavy: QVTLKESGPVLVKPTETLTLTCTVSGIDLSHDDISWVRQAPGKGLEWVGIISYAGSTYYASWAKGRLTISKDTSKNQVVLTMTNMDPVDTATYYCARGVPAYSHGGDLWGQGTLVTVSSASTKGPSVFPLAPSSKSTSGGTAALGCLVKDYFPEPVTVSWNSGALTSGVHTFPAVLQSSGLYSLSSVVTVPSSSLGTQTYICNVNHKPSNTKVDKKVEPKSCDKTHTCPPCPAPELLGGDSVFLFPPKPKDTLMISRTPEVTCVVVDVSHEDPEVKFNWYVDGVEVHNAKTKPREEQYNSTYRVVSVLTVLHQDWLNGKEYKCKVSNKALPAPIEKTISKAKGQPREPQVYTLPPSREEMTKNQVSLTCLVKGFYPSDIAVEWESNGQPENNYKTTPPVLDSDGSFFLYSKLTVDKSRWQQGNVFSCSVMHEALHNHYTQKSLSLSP
light: B1 light
notes: CH MY009 = SG1 with P238D (EU numbering); also called MS1032LO06-MY009
